Laboratory results from the DeepSol protein solubility set.

Assay: soluble on expression in E. coli; label from the status in PepcDB or PDB records

Row | Sequence | soluble on expression in E. coli
1 | MSSRKRGITPSRDQVRRKKLSIEETDSIEVVCRLCPYTGSTPSLIAIDEGSIQTVLPPAQFRRENAPQVEKVFRFGRVFSENDGQATVFERTSVDLILNLLKGQNSLLFTYGVTGSGKTYTMTGKPTETGTGLLPRTLDVIFNSINNRVEKCIFYPSALNTFEIRATLDAHLKRHQMAADRLSTSREITDRYCEAIKLSGYNDDMVCSVFVTYVEIYNNYCYDLLEDARNGVLTKREIRHDRQQQMYVDGAKDVEVSSSEEALEVFCLGEERRRVSSTLLNKDSSRSHSVFTIKLVMAPRAYETKSVYPTMDSSQIIVSQLCLVDLAGSERAKRTQNVGERLAEANSINQSLMTLRQCIEVLRRNQKSSSQNLEQVPYRQSKLTHLFKNYLEGNGKIRMVICVNPKPDDYDENMSALAFAEESQTIEVKKQVERMPSERIPHSFFTQWNSELDGSVRMEDDGSREIPCPPTFCLTDCNDKDTVDSMYKYARKLSSLQNSSEEGPSSTLLTMIRQYMMEADYQRVEIARLKDSLNDKDEEIKKLRGFCSRYKRENASMKERIASCEQGEQENALVMEKLMEQKMEDRKIIQSQKKAMRNVRGIIDNPSPSVASLRSRFDQENVAHPTAPIQTPPPPYQTPGRAPVFKKRLEATTSTTVMSGSSSGGSGQQGYVNPKYQRRSKSASRLLDHQPLHRVPTGTVLQSRTPANAIRTTKPEMHQLNKSGEYRLTHQEVDDEGNISTNIVKGNVIPTVSGGTAVFFNDIERLTHESPSTRK | not soluble
2 | MGSDKIHHHHHHMPAFNQHDLSHFVGKHLIYTYDNGWNYELYVKNANTIDYRIHSGIVGNRWVKDQQVYIVQVAREVYKISWTEPTGTDVSLIANIADKVFHGTIFFPRWVINNPEKTVCFQNEHIAEMEAYRDAGPAYPTEVIDEFATITFIRDCGENNNDVINCPASELPADFPACLKK | not soluble
3 | MSLRTSYKIYCTYKNIHAWYDAIKCGIDAAVKELAEKGVTVDYEWYGPAQPDAVDQVNSIETAIGQGWDLIAVDVNQPELTGEAINNAVAKGIPVAVFGTSDVPNCDRAFFVGNTDPYGDGCALAKAVCEKMGGKGQIAILAGTIGALAHEERLRGFKDTIAKYPDIEIVDEQRDNDEVEKAISITESWLQAYPNLGGILCNNMSNPVGACQAVADAGKSGKIVIGGMDHDLRALNALKDGTLYVAQVQNCYDMGYKLIYNAIKTIDGEKVEESTAVGSTSVYAQDADKFINMLYGEANEGHHHHHH | soluble
4 | MQIVSVDIGSTWTKAALFTREGDALTLVNHVLTPTTTHHLAKGFFSSLNQVLNVDNALPLLNSGEVALKYSSSAKGGLAVAAMGLVPSITLETAKVTAHSAGAKIAQYYAYKLNRRDIQALEETQPDILLFTGGTDGGEESYGLNNARVLAESKLDCAIIYAGNRDIQDEVQEILGHKDLTIVDNVLPDLDHPNPVAARQAICDIFLKRIVKGKGLDVIVDKTGEEPMPTPWTVFELVKAISNVDHSWKEFMLIDMGGATTDVYSACANTLSPDTVLHGVPEPFVKRTVEGDLGMRVSAVVVGESAKELVNVNFAQQPAQLDAFYHYLRHLVAHPDYLPANAEEKYFDTVLAGLCVGYATERHAGTKKEVCTCVGNVDLQMGRDLTTVRKVVGSGGWLSRASQFDMHHWLKYRELNDDGKRILLPTEFEYYRDSRGLLPLLANVARVDPLAAARTSIQCLTL | not soluble
5 | MKSSKASEEDLAAATEKMQSMKGKKSQAAAALEAEQAKAEKRLSCLLKARTKLSFRVIRDGIKCHGGIHLKKQSEKAELDISVTNTAINNLPSDADIVITHKDLTDRAKAKLPNATHISVDNFLNSPKYDELIEKLKSNLIEREYCHASTRKGNIKLNQTVSSKEEAIKLAGQTLIDNGYVTEDYISKMFDREETSSTFMGNFIAIPHGTEEAKSEVLHSGISIIQIPEGVEYGEGNTAKVVFGIAGKNNEHLDIL | soluble
6 | MMQPLYLVGPRGCGKTTIGMALAQATGFRFADTDRWLQSHVQMSVADIVEKEGWGGFRARETAALEAVSAPSTVVATGGGIILTEYNRRYMHRVGVVIYLCAPVSTLVNRLEAEPEADLRPTLTGKPLSEEVREVLEQRDALYRETAHYIIDATKAPAQVVSEIIAALPPSTQRLQGDVYT | not soluble
7 | MGSDKIHHHHHHMQATRESRLIFNINLIYGRLQRNCYGLVALLLCFTSTSAAALDSPVFYKIEYQQQQAYLLGSIHVGRQDFYPLAQHIESAFKQSDALVVEADISQGDTGALLQRYGGLPAEIAADVNATRQEYCQSHQTLCQALAPYAPWLQSAQISMGRFGQLGYSAEQGVDAYFMANRSGKNVVELESIQFQFELISSFSTATQLQMLDDSINASDAEMLDLIYAWRQGDGNALANIMESQAGDADELLEKLLWQRNHTMAQKIIQLLQSKTHKQLFIVVGAGHIVGQQAIPDLLKQQGATITRCSFLQC | not soluble
8 | MGSDKIHHHHHHMALKEEIYYNSPIFIQNILTSMYGKKLMQERYGPGYEKKLQELRVKDRTVDYRIEQLERLNTFLLFIQEHTPYYRKLFQEHDIRLPFTSLDQLQTIPILEKETLRQQNEAFMSEVDAPVRGRTGGTSGKSLQVAFMREDVQERMAHLDYFKELHGFRSGMRRASFTGRTLTAINQKKPIFWRKNRPLNQLLLSIFHMKEENFPAYIEELNRFRPAALDGTPTAMLEIALYLLKHELRLDFPLVAIFPTSETVTPEMRRLLEEAFQAPVFDQYGSSEGAPIISECRERKLHLHHETGIIEPYGDGGEVVVTCFTTRGTPLVRYRIGDRMTLGQEACTCGLNGPVIESIDGRGTSYIVSEKRGKVFEGDITTIARELPNSVLRLQVEQHELNHVTLRYIPDEQRFVPKHEKILLREMQKLLGSSMKVTLEPVQQMKQEPNGKTLIVKQSMK | not soluble
9 | MGSDKIHHHHHHMLSRPVRILIADEIGLGKTIQALAIARYLELQGEAKKILILVPKILREQWKQEIRRLGGKPVVITNGSEVERKLLRKATFNNAAEYFVVSIDLAKSQNHSEKFSAIDWDLLIVDEVHNVTYNTQRYNFLKSLIEKSKEDLNIVFLSATPHRGNPKDYIERLRLLDPTLTADWNALDSEKFYRRTHGVLVFRRTKKVVNDLEKREIFKKCDFNAVIVDITEEEKRFFEELDEVLFEMVKDVHMNSPVALLAVLLRKRAASSYESALKTINNIIKNQYSGASGEDVLEDQIKQIFGLGYDEMELEENSEIDDLISSIINSVAKRYPLDKGQINALEKILKIGKAIGKNDSKLKTLAEVLAYHLKKNEKVIVFTEFKDTLEYLRNNLPTLLEQEGIHLSEEKDISVLHGGMKSEEIEKQVEKFANDGKLLISTDVASEGLNLQVANILINYEIPWSPIKLEQRVGRIWRLNQTKETIAYTLLLNHEADLQILESLYQKILNITDAVGTGPNVGKPVFGTRTLSGNFEYRLENVQDEETSDSPVSEFELMLSAIKRRNLDEQTKRIISTLKSLRTKIEEVVPLNTCNEIQEELNSVLLPDDMESEIVFEKLKKYISVFENSFINSIGSYLFKILTDRIHEPLLNEKCLKIAVKNESKEYRLFQVEVIDRGRKIYEYPVLIEIGGNVSPQLYRGTSLLEKLADVFSKEWFVIEWANPKEKMDIQTAKLIDRSAKDLQSIMDKHTDYDIKLNESLMKTDSLFRRLNTRSSEILRVEGLSDREFSVFKLLHPSILEILGLSLDSIELPPSDYEKWMERSFVPLEDILESERKAMEIVMDIEKKRLIEKYGESSDWKVEDVSLKEHYDIKVSEPEGEKYIEVKGHKPLWLSAELTAAEHRFANDNRDRYWIYIVSNLGGKKPVILKIFSPFDDEKRKIYLVHENKDIDITEIFGSTIKTKQRYVISLGQKIYRRR | not soluble
10 | LKSADHGGRLAYDNGRYGDGDGLTQNGGVNGGLRFGESGFLNLSAQFREQARTIRAGIDQRTGHYGNPSIGDPSLHRQALAYNAGVALDDNVELYSFATYTHRSVSSAQIYQLPSLAPRLYPNGFTPRITSDEDDYSLTLGARGGELFGAWDWDLSSTYGADRPEIGMDHSINLALYGETGDSPRSFDLARYKATQWTNNLDLRRDFDLAWLPAPLNFSWGLEQRRELYEVEAGDPWSYYNGGSKALPGQAPATAGQWSRDVLGAYLDLSIALDERWQLETAARYEHYSDFGSTTNGKLASRYRFSPEVSARASLSSGFRAPSLAQENYTS | not soluble
